In the supplement of paper PMC10065799, “High-throughput profiling of sequence recognition by tyrosine kinases and SH2 domains using bacterial peptide display” (eLife, 2023):

How the values were obtained:
Hck = Hck (UniProt P08631); assay: phosphorylation enrichment, bacterial display (enrichment ratio); higher = better substrate or ligand; peptides without Tyr show the background
EPHB2 = EPHB2 (UniProt P29323); assay: as above
Fer (mouse) = assay: as above
Fyn = Fyn (UniProt P06241); assay: as above
EPHB1 = EPHB1 (UniProt P54762); assay: as above
Chain of EPHB1 (P54762 whole entry, looked up): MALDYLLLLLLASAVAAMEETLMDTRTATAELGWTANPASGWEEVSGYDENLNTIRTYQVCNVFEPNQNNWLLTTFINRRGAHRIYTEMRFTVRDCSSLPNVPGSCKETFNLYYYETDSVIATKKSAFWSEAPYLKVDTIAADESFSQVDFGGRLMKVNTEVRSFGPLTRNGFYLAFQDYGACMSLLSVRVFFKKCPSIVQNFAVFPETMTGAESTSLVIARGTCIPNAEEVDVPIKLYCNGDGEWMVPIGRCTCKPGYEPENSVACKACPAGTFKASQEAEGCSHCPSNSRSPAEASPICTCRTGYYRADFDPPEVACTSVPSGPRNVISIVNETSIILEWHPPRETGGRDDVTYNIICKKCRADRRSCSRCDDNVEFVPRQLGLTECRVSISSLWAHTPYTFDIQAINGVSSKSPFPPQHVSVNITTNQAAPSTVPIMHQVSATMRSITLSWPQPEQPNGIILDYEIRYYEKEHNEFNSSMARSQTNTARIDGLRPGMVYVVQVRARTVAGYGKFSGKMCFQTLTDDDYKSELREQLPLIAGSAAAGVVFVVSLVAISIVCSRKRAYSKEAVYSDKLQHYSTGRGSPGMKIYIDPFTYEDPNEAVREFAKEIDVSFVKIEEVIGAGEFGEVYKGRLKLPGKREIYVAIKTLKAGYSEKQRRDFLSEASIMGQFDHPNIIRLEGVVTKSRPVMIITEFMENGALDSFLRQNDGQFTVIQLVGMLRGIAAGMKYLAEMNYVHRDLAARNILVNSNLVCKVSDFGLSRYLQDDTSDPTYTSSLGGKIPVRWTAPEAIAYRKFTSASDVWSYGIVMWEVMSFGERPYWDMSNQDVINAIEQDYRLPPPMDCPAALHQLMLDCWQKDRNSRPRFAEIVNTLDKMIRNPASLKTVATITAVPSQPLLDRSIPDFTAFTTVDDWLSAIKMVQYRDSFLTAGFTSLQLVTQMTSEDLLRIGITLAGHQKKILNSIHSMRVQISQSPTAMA

Fes = Fes (UniProt P07332); assay: as above
Chain of Fes (P07332 whole entry, looked up): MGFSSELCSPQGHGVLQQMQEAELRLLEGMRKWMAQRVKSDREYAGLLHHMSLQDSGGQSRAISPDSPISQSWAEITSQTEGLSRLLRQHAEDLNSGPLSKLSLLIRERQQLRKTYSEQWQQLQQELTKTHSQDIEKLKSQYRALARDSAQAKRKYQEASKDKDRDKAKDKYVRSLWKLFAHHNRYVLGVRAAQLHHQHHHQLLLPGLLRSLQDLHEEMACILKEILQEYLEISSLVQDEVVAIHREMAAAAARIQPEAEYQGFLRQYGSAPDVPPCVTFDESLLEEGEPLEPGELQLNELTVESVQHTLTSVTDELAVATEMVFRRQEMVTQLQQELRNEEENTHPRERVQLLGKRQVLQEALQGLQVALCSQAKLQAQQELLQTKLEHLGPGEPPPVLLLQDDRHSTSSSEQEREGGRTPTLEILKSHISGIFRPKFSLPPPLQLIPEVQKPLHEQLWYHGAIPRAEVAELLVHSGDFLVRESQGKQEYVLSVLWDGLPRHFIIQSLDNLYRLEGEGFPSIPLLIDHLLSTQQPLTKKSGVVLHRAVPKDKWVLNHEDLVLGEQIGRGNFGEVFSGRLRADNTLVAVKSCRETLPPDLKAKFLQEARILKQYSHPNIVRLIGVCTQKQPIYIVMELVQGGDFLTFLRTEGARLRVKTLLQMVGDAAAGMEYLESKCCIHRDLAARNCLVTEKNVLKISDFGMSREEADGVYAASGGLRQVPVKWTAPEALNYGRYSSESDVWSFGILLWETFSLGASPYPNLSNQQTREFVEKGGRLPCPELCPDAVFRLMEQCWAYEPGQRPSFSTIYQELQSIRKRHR

AncSZ = assay: as above
FGFR1 = FGFR1 (UniProt P11362); assay: as above
Chain of FGFR1 (P11362 whole entry, looked up): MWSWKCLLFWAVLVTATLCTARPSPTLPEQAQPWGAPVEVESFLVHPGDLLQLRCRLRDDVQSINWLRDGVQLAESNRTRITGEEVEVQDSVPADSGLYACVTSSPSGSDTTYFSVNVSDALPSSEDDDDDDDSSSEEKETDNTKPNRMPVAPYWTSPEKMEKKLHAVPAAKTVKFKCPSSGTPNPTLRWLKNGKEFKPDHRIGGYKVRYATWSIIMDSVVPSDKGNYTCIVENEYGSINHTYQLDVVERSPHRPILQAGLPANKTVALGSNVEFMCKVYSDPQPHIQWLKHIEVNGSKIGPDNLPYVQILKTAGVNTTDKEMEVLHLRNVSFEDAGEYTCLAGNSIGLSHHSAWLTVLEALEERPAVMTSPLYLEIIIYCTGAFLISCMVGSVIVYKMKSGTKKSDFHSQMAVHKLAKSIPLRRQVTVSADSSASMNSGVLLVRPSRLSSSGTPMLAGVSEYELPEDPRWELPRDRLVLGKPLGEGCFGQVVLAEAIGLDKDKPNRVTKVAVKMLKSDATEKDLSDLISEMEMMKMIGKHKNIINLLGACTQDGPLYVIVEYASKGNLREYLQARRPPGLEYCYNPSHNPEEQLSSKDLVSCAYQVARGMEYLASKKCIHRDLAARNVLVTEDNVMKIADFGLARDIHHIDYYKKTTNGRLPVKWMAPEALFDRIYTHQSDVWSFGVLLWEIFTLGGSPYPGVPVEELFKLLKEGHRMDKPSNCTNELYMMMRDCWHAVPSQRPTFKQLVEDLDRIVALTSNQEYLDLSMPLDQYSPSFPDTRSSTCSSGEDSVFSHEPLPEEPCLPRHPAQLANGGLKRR

c-Abl (mouse) = assay: as above
FGFR3 = FGFR3 (UniProt P22607); assay: as above
Chain of FGFR3 (P22607 whole entry, looked up): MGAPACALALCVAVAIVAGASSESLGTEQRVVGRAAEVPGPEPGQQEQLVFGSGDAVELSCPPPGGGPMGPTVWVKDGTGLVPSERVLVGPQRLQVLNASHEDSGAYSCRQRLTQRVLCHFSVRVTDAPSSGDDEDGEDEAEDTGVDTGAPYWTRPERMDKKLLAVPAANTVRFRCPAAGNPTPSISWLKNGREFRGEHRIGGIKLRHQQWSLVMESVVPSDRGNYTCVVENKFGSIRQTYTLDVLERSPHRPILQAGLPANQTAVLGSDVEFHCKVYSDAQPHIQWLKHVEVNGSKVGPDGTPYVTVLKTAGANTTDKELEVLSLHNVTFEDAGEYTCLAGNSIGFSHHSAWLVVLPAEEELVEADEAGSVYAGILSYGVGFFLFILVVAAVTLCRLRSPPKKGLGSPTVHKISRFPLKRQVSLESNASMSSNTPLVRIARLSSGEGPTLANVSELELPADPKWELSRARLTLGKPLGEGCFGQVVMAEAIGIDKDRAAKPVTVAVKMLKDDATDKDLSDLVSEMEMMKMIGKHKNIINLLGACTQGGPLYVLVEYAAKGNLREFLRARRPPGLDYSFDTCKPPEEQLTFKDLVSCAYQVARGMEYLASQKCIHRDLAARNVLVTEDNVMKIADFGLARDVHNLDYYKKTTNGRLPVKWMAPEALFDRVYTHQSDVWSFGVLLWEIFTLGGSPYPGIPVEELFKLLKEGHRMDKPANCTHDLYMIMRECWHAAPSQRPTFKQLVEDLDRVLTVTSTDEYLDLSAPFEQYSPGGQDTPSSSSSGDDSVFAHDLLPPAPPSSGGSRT

Jak2 = Jak2 (UniProt O60674); assay: as above
Chain of Jak2 (O60674 whole entry, looked up): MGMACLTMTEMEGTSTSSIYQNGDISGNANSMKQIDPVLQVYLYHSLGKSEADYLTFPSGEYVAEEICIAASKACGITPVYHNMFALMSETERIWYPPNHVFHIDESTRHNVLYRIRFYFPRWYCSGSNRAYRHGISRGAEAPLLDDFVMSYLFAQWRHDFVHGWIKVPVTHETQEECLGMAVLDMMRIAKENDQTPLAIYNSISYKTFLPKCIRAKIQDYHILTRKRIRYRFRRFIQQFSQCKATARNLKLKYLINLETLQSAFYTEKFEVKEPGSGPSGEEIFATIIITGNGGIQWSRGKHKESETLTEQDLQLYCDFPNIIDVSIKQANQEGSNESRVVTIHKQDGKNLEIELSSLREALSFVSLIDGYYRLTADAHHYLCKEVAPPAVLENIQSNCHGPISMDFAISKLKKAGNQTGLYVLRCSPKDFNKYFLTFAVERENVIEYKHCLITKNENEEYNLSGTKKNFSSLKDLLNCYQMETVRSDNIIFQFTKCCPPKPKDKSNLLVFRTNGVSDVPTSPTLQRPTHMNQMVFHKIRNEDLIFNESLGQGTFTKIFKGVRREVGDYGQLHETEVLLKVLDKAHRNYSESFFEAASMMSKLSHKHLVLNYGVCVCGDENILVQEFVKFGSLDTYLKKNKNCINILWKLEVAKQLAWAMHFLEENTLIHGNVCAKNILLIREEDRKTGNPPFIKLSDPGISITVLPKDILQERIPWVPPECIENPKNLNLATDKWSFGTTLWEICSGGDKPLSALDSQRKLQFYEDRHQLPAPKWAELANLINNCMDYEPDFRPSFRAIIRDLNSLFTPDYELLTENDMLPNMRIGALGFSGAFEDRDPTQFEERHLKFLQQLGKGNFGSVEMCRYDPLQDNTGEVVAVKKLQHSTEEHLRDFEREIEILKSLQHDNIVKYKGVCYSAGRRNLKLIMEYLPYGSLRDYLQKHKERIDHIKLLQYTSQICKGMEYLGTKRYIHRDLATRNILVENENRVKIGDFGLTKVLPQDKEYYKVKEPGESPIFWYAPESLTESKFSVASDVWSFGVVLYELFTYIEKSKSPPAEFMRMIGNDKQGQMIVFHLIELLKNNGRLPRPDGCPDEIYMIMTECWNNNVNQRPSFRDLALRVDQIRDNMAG

c-Src = assay: as above
MERTK = MERTK (UniProt Q12866); assay: as above
c-Src SH2 = assay: SH2 binding enrichment of the phosphorylated peptide, bacterial display (enrichment ratio); higher = better substrate or ligand; peptides without Tyr show the background
SHP2-C SH2 = assay: as above
Grb2 SH2 = Grb2 SH2 (UniProt P62993); assay: as above
Chain of Grb2 SH2 (P62993 whole entry, looked up, the tested form may be a part): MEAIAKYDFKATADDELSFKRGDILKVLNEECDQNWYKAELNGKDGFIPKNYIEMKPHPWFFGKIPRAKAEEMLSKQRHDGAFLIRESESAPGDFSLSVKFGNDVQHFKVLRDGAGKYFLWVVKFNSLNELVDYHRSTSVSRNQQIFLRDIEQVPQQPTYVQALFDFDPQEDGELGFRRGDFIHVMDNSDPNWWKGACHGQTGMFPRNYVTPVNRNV
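For SH2 binding enrichment of the phosphorylated peptide, bacterial display in this document: peptide library displayed on the E. coli surface as eCPX fusions, selected cells deep-sequenced, score is each peptide's frequency after selection divided by its frequency in the input.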
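For phosphorylation enrichment, bacterial display in this document: 11-residue human phosphosite peptides and single-mutation variants displayed on the E. coli surface, counted by deep sequencing, each peptide's frequency after selection divided by its frequency in the unselected input library; frequency after pTyr selection over input frequency; kinase dosed for 20-30% of maximal phosphorylation in three min.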

Row | Sequence | phosphorylation enrichment (Hck) | phosphorylation enrichment (EPHB2) | phosphorylation enrichment (Fer (mouse)) | phosphorylation enrichment (Fyn) | phosphorylation enrichment (EPHB1) | phosphorylation enrichment (Fes) | phosphorylation enrichment (AncSZ) | phosphorylation enrichment (FGFR1) | phosphorylation enrichment (c-Abl (mouse)) | phosphorylation enrichment (FGFR3) | phosphorylation enrichment (Jak2) | phosphorylation enrichment (c-Src) | phosphorylation enrichment (MERTK) | SH2 binding enrichment (c-Src SH2) | SH2 binding enrichment (SHP2-C SH2) | SH2 binding enrichment (Grb2 SH2)
1 | ASENVYVNTAH [CTSC_Y150_I153T] | 0.796 | 0.588 | 0.527 | 0.748 | 0.7 | 0.86 | 0.936 | 0.633 | 0.599 | 0.485 | 0.772 | 0.814 | 0.429 | 1.27 | 1.12 | 7.62
2 | ASFGPYTRVQS [FOXL2_Y258_YF] | 0.483 | 0.381 | 0.409 | 0.515 | 0.524 | 0.606 | 0.61 | 0.527 | 0.449 | 0.494 | 0.669 | 0.481 | 0.498 | 1.43 | 4.01 | 0.655
3 | ATHRGYDSDNP [MMUT_Y146] | 0.471 | 0.444 | 0.418 | 0.404 | 0.342 | 0.731 | 0.586 | 0.377 | 0.548 | 0.472 | 0.523 | 0.365 | 0.363 | 0.536 | 0.533 | 0.998
4 | ATPSQYMTFLH [DYNC2H1_Y2872_R2871Q] | 2.29 | 0.473 | 0.541 | 3.39 | 0.593 | 0.791 | 0.903 | 0.562 | 0.885 | 0.651 | 0.99 | 2.62 | 1.06 | 0.75 | 2.86 | 0.799
5 | ATVQNYLPKCI [A2M_Y817_L815Q] | 0.346 | 0.482 | 0.406 | 0.369 | 0.39 | 0.862 | 0.626 | 0.462 | 0.687 | 0.489 | 0.688 | 0.362 | 0.372 | 0.497 | 0.581 | 0.827
6 | AVARMYGVLPW [PLP1_Y207_D203V] | 3.59 | 0.644 | 0.505 | 2.46 | 0.411 | 0.866 | 0.689 | 0.524 | 0.656 | 0.536 | 0.666 | 2.19 | 0.491 | 0.524 | 0.433 | 0.952
7 | AVDVTYDGHPV [FLNB_Y1020] | 2.78 | 3.74 | 0.925 | 2.3 | 1.09 | 0.982 | 1.11 | 0.497 | 0.705 | 0.63 | 0.724 | 2.55 | 0.429 | 0.444 | 0.476 | 0.803
8 | AVEDQYFRVDC [FHL1_Y207_C209R_YF] | 0.542 | 0.568 | 0.626 | 0.552 | 0.655 | 1.38 | 2.04 | 4.27 | 0.838 | 3.33 | 1.6 | 0.519 | 0.499 | 0.591 | 0.892 | 0.934
9 | AVEDQYYCVDC [FHL1_Y207] | 0.796 | 0.598 | 0.684 | 0.853 | 0.53 | 1.3 | 2.07 | 5.7 | 0.786 | 4.65 | 1.39 | 1.97 | 0.72 | 1.08 | 0.748 | 0.877
10 | AVLSLYASGRT [ACTA1_Y145] | 0.702 | 0.571 | 0.503 | 0.489 | 0.622 | 1.2 | 1.02 | 0.523 | 0.813 | 0.699 | 1.04 | 0.461 | 0.413 | 0.555 | 0.731 | 0.971
11 | AVLVQYFMEHH [PTPN11_Y80_E76V_YF] | 0.448 | 0.613 | 0.484 | 0.503 | 0.638 | 1.15 | 0.934 | 0.466 | 0.638 | 0.813 | 1.07 | 0.421 | 0.429 | 1.19 | 1.51 | 1.37
12 | AYGGGYGGVLT [KRT19_Y65] | 0.605 | 0.458 | 0.477 | 0.442 | 0.461 | 0.574 | 0.583 | 0.456 | 0.485 | 0.645 | 0.485 | 0.573 | 0.372 | 0.401 | 0.614 | 0.623
13 | AYQGKYTPSGQ [ALDOA_Y343_C339Y] | 0.309 | 0.299 | 0.345 | 0.262 | 0.388 | 0.441 | 0.383 | 0.316 | 0.384 | 0.375 | 0.545 | 0.35 | 0.337 | 0.622 | 0.639 | 0.939
14 | CEHRGHLYLAI [TEK_Y897_Y897H] | 0.417 | 0.441 | 0.537 | 0.908 | 0.665 | 1.28 | 1.07 | 0.646 | 0.676 | 0.722 | 0.833 | 0.377 | 0.374 | 1.21 | 1.27 | 1.16
15 | CFCSWYRGWAP [TIMP3_Y195_G190C_YF] | 0.887 | 0.707 | 4.11 | 0.647 | 0.859 | 1.44 | 1.28 | 1.07 | 0.933 | 1.03 | 1.25 | 4.5 | 0.556 | 1.09 | 1.24 | 1.17
16 | CGTPDYIAREI [PRKCG_Y521_P524R] | 0.631 | 0.622 | 0.604 | 0.53 | 0.724 | 1.13 | 1.26 | 0.633 | 0.849 | 0.866 | 1.06 | 0.443 | 0.445 | 0.452 | 0.631 | 0.793
